PMC4981888

Target: GST-SVV (UniProt O15392)
Experiment: native gel or EMSA; 0.5 μg recombinant protein in native sample buffer (no SDS, no β-mercaptoethanol) on a 15% or 6% native polyacrylamide gel; Western blot with anti-SVV or anti-cortactin; monomer and dimer bands

stoichiometry N: 2
Substance: GST-SVV (from UniProt O15392 1-142)
